According to patent US20180291110A1 (Hoffmann-La Roche, published 2018):
Residue numbers refer to the chain shown, from its start. Values belong to the binder of their own block, whether it stands above or below them.

Target: T1, human transferrin receptor (recombinant, for surface plasmon resonance) (human, UniProt P02786 89-760)
T1 construct: also called huTfR; human transferrin receptor-biotinylated
Experiment: SPR 25C

T1 sequence (P02786 89-760 limits assumed): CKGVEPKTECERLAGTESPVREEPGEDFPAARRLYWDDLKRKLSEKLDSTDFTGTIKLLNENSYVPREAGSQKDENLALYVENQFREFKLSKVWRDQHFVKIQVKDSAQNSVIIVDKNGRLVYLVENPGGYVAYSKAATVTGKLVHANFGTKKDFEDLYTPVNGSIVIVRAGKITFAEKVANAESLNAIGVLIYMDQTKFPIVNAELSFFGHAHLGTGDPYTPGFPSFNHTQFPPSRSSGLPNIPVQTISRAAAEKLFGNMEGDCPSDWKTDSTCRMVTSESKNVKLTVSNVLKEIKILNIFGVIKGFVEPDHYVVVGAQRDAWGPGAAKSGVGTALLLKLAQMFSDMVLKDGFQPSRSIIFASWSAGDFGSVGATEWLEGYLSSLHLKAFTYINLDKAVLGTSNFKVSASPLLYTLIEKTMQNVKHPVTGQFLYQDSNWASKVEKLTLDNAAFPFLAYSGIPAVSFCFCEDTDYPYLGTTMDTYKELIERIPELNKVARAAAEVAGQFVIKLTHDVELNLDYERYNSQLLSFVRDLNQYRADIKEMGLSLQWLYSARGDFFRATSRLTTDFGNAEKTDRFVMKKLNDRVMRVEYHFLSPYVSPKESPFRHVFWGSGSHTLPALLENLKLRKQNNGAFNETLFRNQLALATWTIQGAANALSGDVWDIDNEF

koff: 0.00214 s⁻¹
B1: 2/99 VH15/VL5 (antibody, V domains shown)
VH: QQLQESGPGLVKPSETLSLTCTVSGFSLSSYAMSWVRQPPGKGLEWIGYIWSGGSTDYNPSLKSRVTISVDTSKNQVSLKLSSVTAADTAVYYCARRYGTSYPDYGDANGFDPWGQGTLVTVSS
VL: DIQMTQSPSSLSASVGDRVTITCRASQSISSYLSWYQQKPGKAPKLLIYRASTLASGVPSRFSGSGSGTDFTLTISSLQPEDFATYYCQQSYSSSNVDNTFGGGTKVEIK

koff: 0.00683 s⁻¹
B2: 2/99 VH9/VL6 (antibody, V domains shown)
VH: QQLLESGGGLVQPGGSLRLSCAASGFTFSSYAMSWVRQAPGKGLEWVGYIWSGGSTDYADSVKGRFTISRDNSKNTLYLQMNSLRAEDTAVYYCAKRYGTSYPDYGDANGFDPWGQGTLVTVSS
VL: B1 VL with D1A, M4L

koff: 0.00668 s⁻¹
B3: 2/99 VH13/VL7 (antibody, V domains shown)
VH: QVQLQESGPGLVKPSETLSLTCTVSGFSLSSYAMSWIRQPPGKGLEWIGYIWSGGSTDYNPSLKSRVTISVDTSKNQVSLKLSSVTAADTAVYYCARRYGTSYPDYGDANGFDPWGQGTLVTVSS
VL: B1 VL with D1A, M4L, S34A

koff: 0.00733 s⁻¹
B4: 2/99 VH1/VL7 (antibody, V domains shown)
VH: B2 VH with Q1V, L4V, S6T, V11I, T27S, F28L, K96R
VL: B1 VL with D1A, M4L, S34A

koff: 0.00088 s⁻¹
B5: 2/99 VH23-DANG/VL5 (antibody, V domains shown)
VH: QSMQESGPGLVKPSQTLSLTCTVSGFSLSSYAMSWIRQHPGKGLEWIGYIWSGGSTDYASWAKSRVTISKTSTTVSLKLSSVTAADTAVYYCARRYGTSYPDYGDANGFDPWGQGTLVTVSS
VL: B1 VL

koff: 0.001 s⁻¹
B6: 2/99 VH19/VL5 (antibody, V domains shown)
VH: B1 VH with Q2S, L3M, E15Q, V36I, P39H, N59A, V77F
VL: B1 VL

koff: 0.00137 s⁻¹
B7: 2/99 VH21/VL5 (antibody, V domains shown)
VH: B1 VH with Q2S, L3M, E15Q, V36I, P39H, N59A, P60S, S61W, L62A
VL: B1 VL

koff: 0.00705 s⁻¹
B8: 2/99 VH12/VL6 (antibody, V domains shown)
VH: B3 VH with V78F
VL: B1 VL with D1A, M4L

koff: 0.00123 s⁻¹
B9: 2/99 VH17/VL5 (antibody, V domains shown)
VH: B1 VH with V70K, Q116P
VL: B1 VL

koff: 0.0035 s⁻¹
B10: 2/99 VH15/VL6 (antibody, V domains shown)
VH: B1 VH
VL: B1 VL with D1A, M4L

koff: 0.00538 s⁻¹
B11: 2/99 VH1/VL6 (antibody, V domains shown)
VH: B2 VH with Q1V, L4V, S6T, V11I, T27S, F28L, K96R
VL: B1 VL with D1A, M4L

koff: 0.0075 s⁻¹
B12: 2/99 VH2/VL7 (antibody, V domains shown)
VH: EVQLVETGGGLIQPGGSLRLSCAASGFSLSSYAMSWVRQAPGKGLEWVGYIWSGGSTDYADSVKGRFTISRDNSKNTLYLQMNSLRAEDTAVYYCARRYGTSYPDYGDANGFDPWGQGTLVTVSS
VL: B1 VL with D1A, M4L, S34A

koff: 0.001 s⁻¹
B13: 2/99 VH19/VL6 (antibody, V domains shown)
VH: B1 VH with Q2S, L3M, E15Q, V36I, P39H, N59A, V77F
VL: B1 VL with D1A, M4L

koff: 0.00306 s⁻¹
B14: 2/99 VH6/VL6 (antibody, V domains shown)
VH: B2 VH with L4V, S6T, V11I, T27S, F28L, V47I, K96R
VL: B1 VL with D1A, M4L

koff: 0.00207 s⁻¹
B15: 2/99 VH21/VL6 (antibody, V domains shown)
VH: B1 VH with Q2S, L3M, E15Q, V36I, P39H, N59A, P60S, S61W, L62A
VL: B1 VL with D1A, M4L

koff: 0.00141 s⁻¹
B16: 2/99 VH22/VL5 (antibody, V domains shown)
VH: B1 VH with Q2S, L3M, E15Q, P39H, N59A, P60S, S61W, L62A
VL: B1 VL

koff: 0.00464 s⁻¹
B17: 2/99 VH5/VL6 (antibody, V domains shown)
VH: B2 VH with Q2S, L3M, L4E, S6T, V11I, T27S, F28L, K96R, Q116P
VL: B1 VL with D1A, M4L

koff: 0.00674 s⁻¹
B18: 2/99 VH18/VL6 (antibody, V domains shown)
VH: B3 VH with E16Q, P40H, N60A, V78F
VL: B1 VL with D1A, M4L

koff: 0.00352 s⁻¹
B19: 2/99 VH20/VL5 (antibody, V domains shown)
VH: B1 VH with Q2S, L3M, E15Q, V36I, P39H, N59A
VL: B1 VL

koff: 0.00563 s⁻¹
B20: 2/99 VH6/VL7 (antibody, V domains shown)
VH: B2 VH with L4V, S6T, V11I, T27S, F28L, V47I, K96R
VL: B1 VL with D1A, M4L, S34A

koff: 0.00671 s⁻¹
B21: 2/99 VH11/VL6 (antibody, V domains shown)
VH: B2 VH with T27S, F28L, K96R
VL: B1 VL with D1A, M4L

koff: 0.00606 s⁻¹
B22: 2/99 VH20/VL6 (antibody, V domains shown)
VH: B1 VH with Q2S, L3M, E15Q, V36I, P39H, N59A
VL: B1 VL with D1A, M4L

koff: 0.00781 s⁻¹
B23: 2/99 VH11/VL7 (antibody, V domains shown)
VH: B2 VH with T27S, F28L, K96R
VL: B1 VL with D1A, M4L, S34A

koff: 0.00771 s⁻¹
B24: 2/99 VH12/VL7 (antibody, V domains shown)
VH: B3 VH with V78F
VL: B1 VL with D1A, M4L, S34A

koff: 0.00223 s⁻¹
B25: 2/99 VH16/VL5 (antibody, V domains shown)
VH: B1 VH with Q116P
VL: B1 VL

koff: 0.00365 s⁻¹
B26: 2/99 VH13/VL6 (antibody, V domains shown)
VH: B3 VH
VL: B1 VL with D1A, M4L

koff: 0.00555 s⁻¹
B27: 2/99 VH2/VL6 (antibody, V domains shown)
VH: B12 VH
VL: B1 VL with D1A, M4L

koff: 0.0014 s⁻¹
B28: 2/99 VH8/VL6 (antibody, V domains shown)
VH: QQLVETGGGLIQPGGSLRLSCAASGFSLSSYAMSWVRQAPGKGLEWIGYIWSGGSTDYASWAKGRFTISKTSTTLYLQMNSLRAEDTAVYYCARRYGTSYPDYGDANGFDPWGQGTLVTVSS
VL: B1 VL with D1A, M4L

koff: 0.00366 s⁻¹
B29: 2/99 VH7/VL7 (antibody, V domains shown)
VH: B2 VH with L4V, S6T, V11I, T27S, F28L, V47I, D60S, S61W, V62A, K96R
VL: B1 VL with D1A, M4L, S34A

koff: 0.00214 s⁻¹
B30: 2/99 VH22/VL6 (antibody, V domains shown)
VH: B1 VH with Q2S, L3M, E15Q, P39H, N59A, P60S, S61W, L62A
VL: B1 VL with D1A, M4L

koff: 0.00697 s⁻¹
B31: 2/99 VH5/VL7 (antibody, V domains shown)
VH: B2 VH with Q2S, L3M, L4E, S6T, V11I, T27S, F28L, K96R, Q116P
VL: B1 VL with D1A, M4L, S34A

koff: 0.00231 s⁻¹
B32: 2/99 VH8/VL7 (antibody, V domains shown)
VH: B28 VH
VL: B1 VL with D1A, M4L, S34A

koff: 0.00761 s⁻¹
B33: 2/99 VH9/VL7 (antibody, V domains shown)
VH: B2 VH
VL: B1 VL with D1A, M4L, S34A

koff: 0.00171 s⁻¹
B34: 2/99 VH17/VL6 (antibody, V domains shown)
VH: B1 VH with V70K, Q116P
VL: B1 VL with D1A, M4L

koff: 0.00339 s⁻¹
B35: 2/99 VH16/VL6 (antibody, V domains shown)
VH: B1 VH with Q116P
VL: B1 VL with D1A, M4L

koff: 0.00349 s⁻¹
B36: 2/99 VH18/VL5 (antibody, V domains shown)
VH: B3 VH with E16Q, P40H, N60A, V78F
VL: B1 VL
